In PMC2745981:

Target: GFP-tagged GluR1 (ΔL2–3) (UniProt P19490)
Test: co-IP

Sequence of UniProt P19490 (P19490 19-907, stated change not applied): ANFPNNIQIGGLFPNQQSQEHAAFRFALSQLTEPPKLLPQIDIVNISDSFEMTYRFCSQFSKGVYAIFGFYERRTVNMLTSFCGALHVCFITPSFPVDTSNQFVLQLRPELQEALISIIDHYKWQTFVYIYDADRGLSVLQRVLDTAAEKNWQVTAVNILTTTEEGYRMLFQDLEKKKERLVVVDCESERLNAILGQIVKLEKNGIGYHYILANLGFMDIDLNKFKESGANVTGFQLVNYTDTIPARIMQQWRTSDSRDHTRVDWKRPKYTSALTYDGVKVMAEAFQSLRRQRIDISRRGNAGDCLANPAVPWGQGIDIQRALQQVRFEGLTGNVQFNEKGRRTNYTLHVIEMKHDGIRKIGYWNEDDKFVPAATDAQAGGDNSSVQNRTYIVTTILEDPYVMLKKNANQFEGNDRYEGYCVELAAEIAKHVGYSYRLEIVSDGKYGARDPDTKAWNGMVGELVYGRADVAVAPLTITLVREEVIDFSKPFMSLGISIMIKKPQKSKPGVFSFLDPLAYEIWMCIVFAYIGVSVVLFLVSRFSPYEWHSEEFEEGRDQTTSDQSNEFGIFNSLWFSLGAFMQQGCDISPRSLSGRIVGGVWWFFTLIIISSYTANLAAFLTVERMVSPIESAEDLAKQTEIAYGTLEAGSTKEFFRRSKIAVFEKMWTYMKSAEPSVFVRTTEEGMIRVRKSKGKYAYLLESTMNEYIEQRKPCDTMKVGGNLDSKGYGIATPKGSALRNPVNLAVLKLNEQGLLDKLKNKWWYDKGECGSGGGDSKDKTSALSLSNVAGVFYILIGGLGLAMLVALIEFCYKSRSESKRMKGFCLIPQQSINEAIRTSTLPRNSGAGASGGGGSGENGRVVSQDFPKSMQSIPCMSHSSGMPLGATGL

With “HA-tagged p62 (from UniProt Q13501 1-440) (natural protein)” the interaction, percent of control (wild-type GluR1) was 78 % of control.
